{
  "source": "patent US20210002370A1",
  "molecular_target": "PD-L1 extracellular domain expressed in HEK293 cells (human) (UniProt Q9NZQ7)",
  "sequence (Q9NZQ7 19-238)": "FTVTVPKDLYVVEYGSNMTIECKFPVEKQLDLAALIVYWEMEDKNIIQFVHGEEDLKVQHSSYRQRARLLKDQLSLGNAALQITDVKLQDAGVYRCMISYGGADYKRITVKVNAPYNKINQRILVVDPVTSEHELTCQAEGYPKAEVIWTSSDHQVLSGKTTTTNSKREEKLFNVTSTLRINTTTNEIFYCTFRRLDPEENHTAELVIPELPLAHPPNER",
  "experiment": "gradient dilution ELISA on coated PD-L1, serum dilution 200",
  "data": [
    {"substance": "Alpaca serum before immunization", "values": [
      {"measurement": "ELISA OD", "result": 0.631, "unit": "OD450 nm"}
    ]}
  ]
}
